Reference: patent US20250277045A1 (KEYMED BIOSCIENCES, published 2025)
Where a chain is given by its changes, count along the chain named.

T1: human BCMA on cells (CHO-hBCMA clone 2C2; NCI-H929; RPMI-8226) (human, UniProt Q02223 1-184)
T1 sequence (looked up): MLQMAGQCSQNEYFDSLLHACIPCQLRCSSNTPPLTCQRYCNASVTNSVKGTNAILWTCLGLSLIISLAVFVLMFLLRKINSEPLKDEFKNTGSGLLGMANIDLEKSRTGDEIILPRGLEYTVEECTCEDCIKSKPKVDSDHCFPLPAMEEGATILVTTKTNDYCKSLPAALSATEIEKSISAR

B1: 23G9 Fab (Fab, V domains shown)
VH: EVQLQQSGTVLTRPGASVKLSCKASGYSFSSYWMHWLKQRPGQGLEWIGAIYPGNSRTTYNQKFKGEAKLTADTSASTAYMDLSSLTNADSAVYFCTREETYWGQGTLVTVSA
VL: DVVMTQTPLSLSVTIGQPASISCKSSQGLLDSYGVTYLNWLFQRPGQPPKRLIYLVSELDSGVPDRFTGSGSGTDFTLRISRVEAEDLGIYYCWQGSHFPLTFGAGTKLELK
notes: Murine BCMA Fab, Ni-NTA purified
B2: 15G9 Fab (Fab, V domains shown)
VH: QVQLQQSGPELVKPGASVNLSCKASGYTFTNYVIHWVKQKPGQGLEWIGYTIPYTDVTKYNEKFKAKATLTSDKSSSTAFMELSSLTSEDSAVYYCARYDFDGYFDYWGQGTTLTVSS
VL: DIVMTQAAFSNPVTLGTSASISCRSSKSLLHSNGITYLYWYLQKPGQSPQLLIYQMSNLASGVPDRFSSSGSGTDFTLRISRVEAEDVGVYYCAQNLELPWTFGGGTKLELK
notes: as for B1
B3: 38E2 Fab (Fab, V domains shown)
VH: QVQLQQSGAELVRPGTSVKMSCKAAGYTFTNYWIGWVKQRPGHGLEWIGDIYPGSGDTNYNGKFKGKATLAADISSNAAYMQLSSLTSEDSAIYYCARSYYRNDAASFAYWGQGTLVTVSA
VL: DIVMTQSHKFMSTSVGDRVNITCKASQDVDTAVAWYQQKPSQSPKLLIYWTSTRHTGVPDRFTGSGSGTDFTLTISNVQSEDLADYFCQQFSSYPLTFGAGTKLELK
notes: as for B1
B4: h38E2-CD3 (bispecific antibody, V domains shown)
VH 1: QVQLVQSGAEVKKPGSSVKVSCKASGYTFTNYWIGWVREAPGQGLEWMGDIYPGSGDTNYNGKFQGRVTLTADISSNTAYMELSSLRSEDTAVYYCARSYYRNDAASFAYWGQGTLVTVSS
VL 1: DIQMTQSPSSLSASVGDRVTITCQASQDVDTAVAWYQKKPGKAPKLLIYWTSTRHTGVPSRFSGSGSGTDFTFTISSLQPEDIATYFCQQFSSYPLTFGQGTKVEIK
VH 2: EVQLVESGGGLVQPGGSLRLSCAASGFTFNTYAMNWVRKAPGKGLEWVGRIRSKYNNYATYYADSVKDRFTISRDDSKNSLYLQMNSLKTEDTAVYYCVRHGNFGNSYVSWFAYWGQGTLVTVSS
VL 2: QAVVTQEPSLTVSPGGTVTLTCRSSTGAVTTSNYANWVQEKPGQAPRGLIGGTNKRAPWTPARFSGSLLGGKAALTITGAQAEDEAEYYCVLWYSNLWVFGGGTKLTVL
B5: h40C6-CD3 (bispecific antibody, V domains shown)
VH 1: QVQLVQSGSELKKPGASVKVSCKASGYIFTNFGMNWVREAPGQGLEWMGWINTYTGEQIYADDFKGRFAFSLDTSASTAYLQISSLKAEDTAVYFCARGEIYYGYDVGFVYWGQGTLVTVSS
VL 1: DIVLTQSPASLAVSPGQRATITCRASRSVTTSGYSYIHWYQKKPGQPPKLLIYLASDLEAGVPARFSGSGSGTDFTLTINPVEANDTANYYCQHSRELPWTFGQGTKVEIK
VH 2: B4 VH 2
VL 2: B4 VL 2
B6: h23F8-CD3 (bispecific antibody, V domains shown)
VH 1: B5 VH 1 with I28T, E57D
VL 1: B5 VL 1 with R27K, T30S, I37M, D57N, A60S
VH 2: B4 VH 2
VL 2: B4 VL 2
B7: 29A11 Fab (Fab, V domains shown)
VH: EIQLVQSGPELKKPGETVKISCKASGYIFTNFGMNWVRQAPGKALKWMGWINTYTGEQIYADDFKGRFAFSLETSASTAYLQINNLKNEDTATYFCARGEIYYGYDVGFVYWGQGTLVTVSA
VL: DIVLTQSPASLAVSLGQRATISCRASKSVSTSGYSYMHWYQQKPGQPPKLLIYLASNLESGVPARFSGSGSGTDFTLNIHPVEEEDAATYYCQHSRELPWTFGGGTKLEIK
notes: as for B1
B8: 38F9 Fab (Fab, V domains shown)
VH: B7 VH
VL: NIVLTQSPASLAVSLGQRATISCRASESVDSSGNSFMHWYQQKPGQPPKLLIYLESNLESGVPARFSGSGSRTDFTLTIEPVEADDAATYYCQQSNEDPWTFGGGTKLEIK
notes: as for B1
B9: 40C6 Fab (Fab, V domains shown)
VH: B7 VH
VL: B7 VL with V13I, K27R, S30T, M37I, N57D, S60A
notes: as for B1
B10: 34G2 Fab (Fab, V domains shown)
VH: B7 VH with I2V, V5Q, K12R, I28T, F32Y, R38K, A40T, A44G, Q58R
VL: B7 VL with A12V, K107R
notes: as for B1
B11: 3G11 Fab (Fab, V domains shown)
VH: B7 VH
VL: B7 VL with A12T, N57D, P63S
notes: Murine BCMA Fab from phage library, expressed in TG1 periplasm, purified by Ni-NTA
B12: 23F8 Fab (Fab, V domains shown)
VH: B7 VH with K23T, I28T, K46R, E57D
VL: B7 VL
notes: as for B1
B13: 38D9 Fab (Fab, V domains shown)
VH: B7 VH with I2V, V5Q
VL: B7 VL with A12T, R24G, A55G, N57D
notes: as for B1
B14: 6G5 Fab (Fab, V domains shown)
VH: B7 VH
VL: B7 VL with V13I, S30T, M37I, N57D, S60A, I110L
notes: as for B1
B15: 15H10 Fab (Fab, V domains shown)
VH: B7 VH with I2V, V5Q, I28T, A40T, E57D, Q58L, A61G, V110A
VL: B7 VL
notes: as for B1
B16: 16B9 Fab (Fab, V domains shown)
VH: B7 VH with A40T, Q58T, R67L, T74V, S75P, Y105F, V110A
VL: B7 VL with A12T, M37I, N57D, I110L
notes: as for B1

Assays:
[1] = molecular target: T2, human BCMA-hFc kih monovalent recombinant protein (human, UniProt P0DOX5 223-449 = IgG part); assay: SPR (Biacore T200), BCMA-hFc captured on Protein A chip, Fab as analyte, 1:1 Langmuir
T2 construct: Knob-into-hole heterodimer with one BCMA arm, expressed in HEK293E; also called human BCMA-hFc recombinant protein
Text: Kinetic constants were fitted using Biacore T200 evaluation software with a Langmuir 1:1 kinetics model.

[2] = molecular target: T1, human BCMA on cells (CHO-hBCMA clone …); assay: cell-based or functional assay
[3] = molecular target: human CD3 on T cells (Jurkat cells; human peripheral blood CD4+ and CD8+ T cells) (human, UniProt P07766 23-207); assay: cell-based or functional assay
human CD3 on T cells (Jurkat cells; human peripheral blood CD4+ and CD8+ T cells), sequence (P07766 23-207): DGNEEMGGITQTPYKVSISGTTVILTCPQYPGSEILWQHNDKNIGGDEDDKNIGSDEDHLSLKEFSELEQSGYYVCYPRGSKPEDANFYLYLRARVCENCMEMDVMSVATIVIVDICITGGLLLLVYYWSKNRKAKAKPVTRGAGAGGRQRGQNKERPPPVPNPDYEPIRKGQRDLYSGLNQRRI
For Upregulation of CD25 (%), CD4+T in this document: test concentration or dose not given here.
For Upregulation of CD25 (%), CD8+T in this document: test concentration or dose not given here.
For Upregulation of CD69 (%), CD4+T in this document: test concentration or dose not given here.
For Upregulation of CD69 (%), CD8+T in this document: test concentration or dose not given here.

Row | Binder | Kd [1] [nM] | koff [1] [s⁻¹] | kon [1] [M⁻¹ s⁻¹] | also measured
1 | B1 | 76.9 | 0.000313 | 4070 | –
2 | B2 | 12.2 | 0.0126 | 1.03e+06 | –
3 | B3 | 8.1 | 0.000798 | 98800 | –
4 | B4 | – | – | – | Killing EC50 (TDCC, LDH release; PBMC + RPMI-8226) [2]: 13.6 nM; Upregulation of CD25 (%), CD4+T [3]: 29%; Upregulation of CD25 (%), CD8+T [3]: 38%; Upregulation of CD25 EC50, CD4+T [3]: 3.65 nM; Upregulation of CD25 EC50, CD8+T [3]: 3.65 nM; Upregulation of CD69 (%), CD4+T [3]: 55%; Upregulation of CD69 (%), CD8+T [3]: 69%; Upregulation of CD69 EC50, CD4+T [3]: 7.4 nM; Upregulation of CD69 EC50, CD8+T [3]: 2.32 nM
5 | B5 | – | – | – | Killing EC50 (TDCC, LDH release; PBMC + RPMI-8226) [2]: 1.12 nM; Upregulation of CD25 (%), CD4+T [3]: 25%; Upregulation of CD25 (%), CD8+T [3]: 28%; Upregulation of CD25 EC50, CD4+T [3]: 0.45 nM; Upregulation of CD25 EC50, CD8+T [3]: 0.49 nM; Upregulation of CD69 (%), CD4+T [3]: 37%; Upregulation of CD69 (%), CD8+T [3]: 44%; Upregulation of CD69 EC50, CD4+T [3]: 0.63 nM; Upregulation of CD69 EC50, CD8+T [3]: 0.21 nM
6 | B6 | – | – | – | Killing EC50 (TDCC, LDH release; PBMC + RPMI-8226) [2]: 0.81 nM; Upregulation of CD25 (%), CD4+T [3]: 25%; Upregulation of CD25 (%), CD8+T [3]: 34%; Upregulation of CD25 EC50, CD4+T [3]: 0.57 nM; Upregulation of CD25 EC50, CD8+T [3]: 0.79 nM; Upregulation of CD69 (%), CD4+T [3]: 41%; Upregulation of CD69 (%), CD8+T [3]: 59%; Upregulation of CD69 EC50, CD4+T [3]: 0.44 nM; Upregulation of CD69 EC50, CD8+T [3]: 0.49 nM
7 | B7 | 3.2 | 0.000243 | 76400 | –
8 | B8 | 344 | 0.002 | 5810 | –
9 | B9 | 6.4 | 0.000271 | 42100 | –
10 | B10 | 5 | 0.000705 | 142000 | –
11 | B11 | 13 | 0.000432 | 33300 | –
12 | B12 | 5.6 | 0.000322 | 57700 | –
13 | B13 | 5.6 | 0.000329 | 59100 | –
14 | B14 | 2.1 | 6.13e-05 | 29400 | –
15 | B15 | 18.3 | 0.00069 | 37800 | –
16 | B16 | 4.1 | 0.000476 | 117000 | –
